Experimental data reported in patent publication US12344663B2, “Anti-C3 antibodies and antigen-binding fragments thereof and their uses for treating eye or ocular diseases” (CDR-Life AG, priority 2021, dated 2025).

Key:
Classical Pathway = test: WEISLAB Complement system Screen, classical pathway MAC (C5b-C9) formation; assay type: biochemical, human; conditions: human serum; read-out: IC50 (nM) Classical Pathway MAC deposition
Protocol: To identify antibodies that block all 3 complement pathways, antibodies are screened using an enzyme immunoassay for the qualitative determination of functional classical, lectin and alternative complement pathways in human serum using the WEISLAB® Complement system Screen (Svar Life Science AB, Malmö, Sweden).
To monitor inhibition of the complement system in human serum, the scFv of the invention or the comparator molecules are tested using an enzyme immunoassay for the qualitative determination of functional classical, lectin and alternative complement pathways in human serum using the WEISLAB® Complement system Screen (Svar Life Science AB, Malmö, Sweden), following the supplier's instructions. The amount of C5b-C9 neoantigen generated is proportional to the functional activity of complement pathways. The scFv of the invention and the comparator molecules are tested in a concentration response curve and the IC50 for the inhibition is calculated using the GraphPadPrism software and a non-linear, 4 parameters curve regression.

Alternative Pathway (AP) = test: Hemolytic assay, rabbit erythrocytes in human serum; assay type: cell-based; conditions: MgEGTA, read-out: IC50 (nM) Alternative Pathway Hemolysis
From the text: The Alternative Pathway (AP) in human serum samples is spontaneously activated by rabbit erythrocytes. Since AP activation requires higher concentrations of serum, the Classical Pathway needs to be blocked with MgEGTA to chelate Ca2+ ions (AP only requires Mg2+ ions). AP activation results in C3 activation and subsequent formation of the Membrane Attack Complex (MAC). The MAC assembles on the membrane of rabbit erythrocytes leading to cell lysis. The level of hemoglobin released from lysed erythrocytes is measured at OD 414 nm and is proportional to the complement activity present in the serum sample.

cyno C3 = test: SPR (Biacore T100) binding to cyno C3; design: species or system cynomolgus (Macaca fascicularis); conditions: for Kd: Table 20, SPR; for kd cyno C3: off-rate; for ka cyno C3: on-rate
Protocol: (§1) The kinetic parameters of the candidates are determined using a surface plasmon resonance (SPR) and Biacore T100 device. C3 and different variants thereof (Table 19) are immobilized as a ligand on a HC30M SPR sensor chip (XanTec bionanalytics, Germany) using EDC/[…] linking chemistry. Five increasing concentrations of each molecule (analyte) are consecutively injected using the single cycle kinetics (SCK) mode to determine the kinetic parameters. Regeneration between the candidates is done with 10 mM glycine*HCl, 2 M NaCl, pH 3.5. The data is fitted to a 1:1 Langmuir binding model and the kinetic parameters of on-rate (ka), off-rate (kd), and affinity […] were determined.

[1] = molecular target: T1, recombinant C3 (wild-type human C3) (Homo sapiens, UniProt P01024); test: SPR (Biacore T100) binding to recombinant C3; conditions: for Kd: Table 20, SPR; for kd recombinant C3: off-rate; for ka recombinant C3: on-rate
T1 construct: 6×His (N); made in house; host or cells: CHO (ExpiFectamine CHO Expression Kit)
Protocol: as §1
(§2) Proteins are expressed with N-terminal 6×His tag and purified using a HisTrap Excel HP column (GE Healthcare), followed by a size-exclusion chromatography step (SUPERDEX®20010/300GL; GE Healthcare).

human C3 P314L = molecular target: T2, human C3 P314L (Homo sapiens, UniProt P01024, P314L); test: SPR (Biacore T100) binding to C3 SNP1 P314L; conditions: for Kd: Table 20, SPR; for kd C3 SNP1 P314L: off-rate; for ka C3 SNP1 P314L: on-rate
T2 construct: 6×His (N); made in house; host or cells: CHO (ExpiFectamine CHO Expression Kit)
Protocol: as §1
Single nucleotide polymorphism (SNP) in C3 has been observed across the population and certain SNPs were identified in genome-wide association studies (GWAS) to correlate with an increased risk to develop AMD. […] Very rare variants, which occur in less that 2.5% of the population include K155Q, R735W, S1619W, K65Q and R161W.
as §2

human C3 R102G = molecular target: T3, human C3 R102G (Homo sapiens, UniProt P01024, R102G); test: SPR (Biacore T100) binding to C3 SNP2 R102G; conditions: for Kd: Table 20, SPR; for kd C3 SNP2 R102G: off-rate; for ka C3 SNP2 R102G: on-rate
T3 construct: 6×His (N); made in house; host or cells: CHO (ExpiFectamine CHO Expression Kit)
Protocol: as §1
Single nucleotide polymorphism (SNP) in C3 has been observed across the population and certain SNPs were identified in genome-wide association studies (GWAS) to correlate with an increased risk to develop AMD. Common SNP variants include P314L, which occurs in approximately 23.3% of population, and R102G, which has been reported to occur in approximately 26-29% of population. Very rare variants, which occur in less that 2.5% of the population include K155Q, R735W, S1619W, K65Q and R161W.
The inventors therefore measured the binding affinity of the scFv of the invention to the most commonly occurring C3 forms, i.e., R102G and P314L. Wild-type human C3, human C3 P314L and human C3 R102G are expressed in the CHO cell line using the ExpiFectamine CHO Expression Kit (Thermo Fisher Scientific). Proteins are expressed with N-terminal 6×His tag and purified using a HisTrap Excel HP column (GE Healthcare), followed by a size-exclusion chromatography step (SUPERDEX®20010/300GL; GE Healthcare).

[2] = Storage stability at 150 mg/ml, chemical degradation by IEX-HPLC; assay type: physicochemical; conditions: for Starting charge purity (IEX-HPLC): before storage; for Storage stability, IEX 4 weeks at 25° C. [D %] / Storage stability, IEX 4 weeks at 40° C. [D %]: decrease versus start
Protocol: Clone I, clone II and clone III are tested for storage stability. Samples are concentrated to 150 mg/ml (Vivaspin20 centrifugal device, 5 kDa MWCO at 3800×g) and stored at 25° C. and 40° C. for up to 4 weeks. Samples are analyzed for oligomerization (SE-HPLC) and chemical degradation (IEX-HPLC). The starting monomeric purity as determined by SE-HPLC was 99.96% for each clone. The starting charge purity, as determined by IEX-HPLC was 98.07%, 97.16% and 96.76%, respectively for clone I, II and III.

[3] = Viscosity at high concentrations, cone-plate-rheometer; assay type: physicochemical; conditions: 20° C., shear-rate 1000 s^−1; for Viscosity [mPa * s] Fully formulated at 150 g/L: 10 mM His pH 5.5, 275 mM sucrose, 0.02% w/v Polysorbate20; for Viscosity [mPa * s] Minimal buffer at 185 g/L: 10 mM His pH 5.5
Protocol: Viscosity measurements are performed with the samples prepared for the storage stability study. In addition to the fully formulated samples (10 mM His pH 5.5, 275 mM sucrose, 0.02% w/v Polysorbate20), viscosity of each candidate is also measured in a minimal formulation (10 mM histidine pH 5.5). This is performed to evaluate the drug substance processability (e.g., filtration, pumping, diafiltration, etc.) of the candidates up to 125% of the final drug product concentration of 150 mg/ml.
Viscosity is measured at 20° C. at a shear-rate of 1000 s^−1 using a cone-plate-rheometer. Briefly, a stepwise increase of the shear rate up to 1,000 s^−1 is done collecting 100 data points, followed by a further increase of the shear rate up to 2000 s^−1, collecting another 10 data points. Finally, a stepwise decrease of the shear rate down to starting rate is done. Good drug product handling properties for filling and syringeability have been observed for all candidates

T3 sequence (P01024 23-1663 R102G): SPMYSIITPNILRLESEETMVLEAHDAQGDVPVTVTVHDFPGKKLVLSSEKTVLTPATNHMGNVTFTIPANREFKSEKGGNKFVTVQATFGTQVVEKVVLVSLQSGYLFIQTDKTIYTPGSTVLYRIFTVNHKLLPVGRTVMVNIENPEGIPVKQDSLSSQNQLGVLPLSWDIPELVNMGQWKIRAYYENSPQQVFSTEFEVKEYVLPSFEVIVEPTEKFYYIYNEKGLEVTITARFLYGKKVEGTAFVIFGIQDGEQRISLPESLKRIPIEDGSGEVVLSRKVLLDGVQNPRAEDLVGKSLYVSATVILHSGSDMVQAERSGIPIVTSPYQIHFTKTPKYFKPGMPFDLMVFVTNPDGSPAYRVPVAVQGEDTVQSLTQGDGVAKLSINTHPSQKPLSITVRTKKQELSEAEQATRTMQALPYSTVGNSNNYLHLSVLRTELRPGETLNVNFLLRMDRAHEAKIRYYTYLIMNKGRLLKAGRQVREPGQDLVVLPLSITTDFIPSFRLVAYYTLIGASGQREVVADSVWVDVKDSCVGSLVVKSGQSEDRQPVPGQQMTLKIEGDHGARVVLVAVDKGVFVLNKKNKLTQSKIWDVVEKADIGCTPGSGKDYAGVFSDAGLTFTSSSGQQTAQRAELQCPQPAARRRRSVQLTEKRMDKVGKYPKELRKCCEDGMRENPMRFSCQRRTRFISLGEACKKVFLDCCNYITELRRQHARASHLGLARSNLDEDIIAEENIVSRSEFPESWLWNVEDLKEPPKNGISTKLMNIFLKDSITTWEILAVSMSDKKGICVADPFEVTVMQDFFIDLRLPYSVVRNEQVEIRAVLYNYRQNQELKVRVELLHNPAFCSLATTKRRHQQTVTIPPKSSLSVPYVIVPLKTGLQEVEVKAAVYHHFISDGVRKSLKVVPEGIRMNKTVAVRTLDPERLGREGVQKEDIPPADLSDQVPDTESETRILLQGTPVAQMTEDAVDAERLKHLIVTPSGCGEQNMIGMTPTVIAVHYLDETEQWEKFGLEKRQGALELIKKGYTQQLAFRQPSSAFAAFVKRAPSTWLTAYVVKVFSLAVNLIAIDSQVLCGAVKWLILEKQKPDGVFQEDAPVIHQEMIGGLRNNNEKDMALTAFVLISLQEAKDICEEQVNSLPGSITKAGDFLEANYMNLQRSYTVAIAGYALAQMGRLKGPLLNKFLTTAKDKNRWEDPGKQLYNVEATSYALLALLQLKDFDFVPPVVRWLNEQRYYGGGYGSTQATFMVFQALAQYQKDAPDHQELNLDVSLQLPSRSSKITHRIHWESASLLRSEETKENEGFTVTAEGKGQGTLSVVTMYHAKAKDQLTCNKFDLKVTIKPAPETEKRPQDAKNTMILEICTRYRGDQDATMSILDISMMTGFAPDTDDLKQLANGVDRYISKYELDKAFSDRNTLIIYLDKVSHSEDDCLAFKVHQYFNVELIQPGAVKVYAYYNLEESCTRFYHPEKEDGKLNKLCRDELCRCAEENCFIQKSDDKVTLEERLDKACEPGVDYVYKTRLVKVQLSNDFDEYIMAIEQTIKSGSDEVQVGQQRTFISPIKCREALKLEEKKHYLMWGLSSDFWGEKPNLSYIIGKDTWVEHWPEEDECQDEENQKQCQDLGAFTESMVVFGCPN
T2 sequence (P01024 23-1663 P314L): as the sequence (P01024 23-1663 R102G) above, with G80R, P292L counted along it
T1 sequence (P01024 23-1663): as the sequence (P01024 23-1663 R102G) above, with G80R counted along it

| Molecule | IC50 (Classical Pathway) | IC50 (Alternative Pathway (AP)) | Kd (cyno C3) | kd cyno C3 (cyno C3) | ka cyno C3 (cyno C3) | Kd [1] | kd recombinant C3 [1] | ka recombinant C3 [1] | Kd (human C3 P314L) | kd C3 SNP1 P314L (human C3 P314L) | ka C3 SNP1 P314L (human C3 P314L) | Kd (human C3 R102G) | kd C3 SNP2 R102G (human C3 R102G) | ka C3 SNP2 R102G (human C3 R102G) | Starting charge purity (IEX-HPLC) [2] | Storage stability, IEX 4 weeks at 25° C. [D %] [2] | Storage stability, IEX 4 weeks at 40° C. [D %] [2] | Viscosity [mPa * s] Fully formulated at 150 g/L [3] | Viscosity [mPa * s] Minimal buffer at 185 g/L [3] |
| --- | --- | --- | --- | --- | --- | --- | --- | --- | --- | --- | --- | --- | --- | --- | --- | --- | --- | --- | --- |
| Clone I: humanized anti-C3 scFv, VH SEQ ID NO: 20, VL SEQ ID NO: 21; scFv SEQ ID NO: 26 or 27 (antibody, V domains shown, VH; VL) VH: QVQLVESGGGSVQPGRSLRLSCAASGFTFSNYAMNWVRQAPGKGLEWVAVISYDGSNKYYADSVKGRFTISRDNSKNTLYLQMNSLRAEDTASYYCARAVGYHHARLDPWGCGTSVTVSS VL: QLVLTQSPSASASLGASVKLTCTLSSAHKTYTIDWYQQQPEKCPRYLMQLKSDGSYTKGSGIPDRFSGSSSGAERYLTISSLQSEDEADYYCGTEGVGGYVFGGGTKLTVLG | 79 nM | 705 nM | 0.267 nM | 6.3e-05 s⁻¹ | 240000 M⁻¹ s⁻¹ | 0.148 nM | 4.9e-05 s⁻¹ | 330000 M⁻¹ s⁻¹ | 0.14 nM | 4.2e-05 s⁻¹ | 300000 M⁻¹ s⁻¹ | 0.135 nM | 4.5e-05 s⁻¹ | 330000 M⁻¹ s⁻¹ | 98.07% | 1.1 D % | 2.4 D % | 3.9 mPa * s | 5.4 mPa * s |
| Clone II: humanized anti-C3 scFv, VH SEQ ID NO: 22, VL SEQ ID NO: 23; scFv SEQ ID NO: 28 or 29 (antibody, V domains shown, VH; VL) VH: QVQLVESGGGSVQPGRSLRLSCAASGFTFSNYAMNWVRQAPGKGLEWVAIINVGGGTNYADSVKGRFTISRDNSKNTLYLQMNSLRAEDTASYYCARAVGYHHARLDPWGCGTSVTVSS VL: QLVLTQSPSASASLGASVKLTCTLSSAHKTYTIDWYQQQPEKCPRYLMQLKSDGSYTKGSGIPDRFSGSSSGAERYLTISSLQSEDEADYYCGTEGVGGYVFGGGTKLTVLG | 77 nM | 668 nM | 0.07 nM | 1.5e-05 s⁻¹ | 210000 M⁻¹ s⁻¹ | 0.035 nM | 1e-05 s⁻¹ | 300000 M⁻¹ s⁻¹ | < 0.04 nM | <1.1e-05 s⁻¹ | 290000 M⁻¹ s⁻¹ | 0.021 nM | 7e-06 s⁻¹ | 330000 M⁻¹ s⁻¹ | 97.16% | 0.5 D % | 3.3 D % | 3.9 mPa * s | 4.5 mPa * s |
